Legend:
[1] = biological target: T1, His-TEV LRRC4B; assay: ELISA; captured by His-TEV LRRC4B, detected by HRP-conjugated C-A5-Ab
T1 sequence (Q9NT99 whole entry, species assumed, looked up): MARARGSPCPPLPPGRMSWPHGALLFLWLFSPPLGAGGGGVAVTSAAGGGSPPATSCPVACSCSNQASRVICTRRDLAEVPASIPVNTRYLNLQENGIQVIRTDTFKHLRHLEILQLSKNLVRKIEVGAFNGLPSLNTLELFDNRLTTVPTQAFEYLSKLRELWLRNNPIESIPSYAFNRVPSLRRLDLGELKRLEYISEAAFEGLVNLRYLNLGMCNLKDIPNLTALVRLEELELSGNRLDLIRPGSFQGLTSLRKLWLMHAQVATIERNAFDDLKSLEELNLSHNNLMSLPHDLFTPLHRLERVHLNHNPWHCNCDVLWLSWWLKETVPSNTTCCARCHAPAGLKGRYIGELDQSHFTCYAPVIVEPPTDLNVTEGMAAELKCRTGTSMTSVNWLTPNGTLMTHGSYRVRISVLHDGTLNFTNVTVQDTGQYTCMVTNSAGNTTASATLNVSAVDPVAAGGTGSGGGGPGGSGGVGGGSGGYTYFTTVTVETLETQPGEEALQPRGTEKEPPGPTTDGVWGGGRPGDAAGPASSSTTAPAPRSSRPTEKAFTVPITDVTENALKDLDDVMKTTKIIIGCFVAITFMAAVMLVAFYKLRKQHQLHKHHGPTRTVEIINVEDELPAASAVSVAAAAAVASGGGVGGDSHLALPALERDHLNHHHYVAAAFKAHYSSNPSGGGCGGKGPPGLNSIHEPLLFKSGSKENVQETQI

[2] = biological target: T1, His-TEV LRRC4B; assay: ELISA; competition: LRRC4B-PTPRF complex in the presence of FAM19A5; captured by His-TEV LRRC4B, detected by HRP-conjugated anti-human IgG Fc
[3] = biological target: T2, His-TEV LRRC4B; assay: competition ELISA (dissociation of LRRC4B-PTPRF complex); conditions: chain shown with the change; read at the highest FAM19A5 concentration, about 1e4 nM; signal is PTPRF remaining bound to His-TEV LRRC4B, so a lower OD means more displacement by FAM19A5 …; parent: est. 0.16; read off a plot
T2 chain: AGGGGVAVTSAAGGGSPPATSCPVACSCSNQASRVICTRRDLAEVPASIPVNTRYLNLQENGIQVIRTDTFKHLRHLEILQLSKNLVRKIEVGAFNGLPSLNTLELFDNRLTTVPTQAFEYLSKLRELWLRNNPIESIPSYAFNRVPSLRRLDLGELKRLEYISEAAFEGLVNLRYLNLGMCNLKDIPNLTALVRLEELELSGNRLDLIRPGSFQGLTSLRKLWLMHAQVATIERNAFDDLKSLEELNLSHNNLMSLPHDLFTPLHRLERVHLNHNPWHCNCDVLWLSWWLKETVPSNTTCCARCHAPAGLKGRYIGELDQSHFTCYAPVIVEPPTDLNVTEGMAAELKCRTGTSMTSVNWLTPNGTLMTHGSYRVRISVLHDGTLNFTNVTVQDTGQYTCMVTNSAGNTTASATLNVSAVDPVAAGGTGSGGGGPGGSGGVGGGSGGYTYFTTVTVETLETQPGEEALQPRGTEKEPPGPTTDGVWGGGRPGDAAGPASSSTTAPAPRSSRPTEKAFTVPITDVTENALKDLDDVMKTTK

[4] = biological target: T3, recombinant FAM19A5 (family with sequence similarity 19 member A5) (UniProt Q7Z5A7 44-132); assay: ELISA; competition: FAM19A5 captured by LRRC4B(36–576)-hFc in the presence of inhibitor, detected by HRP-conjugated C-A5-Ab; conditions: both partners purified
T3 construct: FAM19A5 (TAFA5), secretory protein; also called TAFA5; WT FAM19A5; source: recombinant
T3 sequence (Q7Z5A7 44-132): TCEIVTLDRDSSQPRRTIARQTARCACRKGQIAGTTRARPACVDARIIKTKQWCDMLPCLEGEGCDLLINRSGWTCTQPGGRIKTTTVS

“MT FAM19A5 (R58A, R59A) (from UniProt Q7Z5A7 44-132) (natural protein)” was tested, and the EC50 [1] was 0.595 nM.

For “recombinant FAM19A5 (family with sequence similarity 19 member A5) (from UniProt Q7Z5A7 44-132) (natural protein)”, the IC50 [2] was 281 nM and the EC50 [1] was 0.41 nM.

B1: recombinant FAM19A5 (family with sequence similarity 19 member A5), Q7Z5A7 R58A; R59A; R125A; K127A (protein)
chain: TCEIVTLDRDSSQPAATIARQTARCACRKGQIAGTTRARPACVDARIIKTKQWCDMLPCLEGEGCDLLINRSGWTCTQPGGAIATTTVS
B1 was tested, and the response [3] was 0.52 OD (450 nm).

B2: LRRC4B(453–576)-hFc (Fc fusion, UniProt Q9NT99 453-576, looked up)
chain: VSAVDPVAAGGTGSGGGGPGGSGGVGGGSGGYTYFTTVTVETLETQPGEEALQPRGTEKEPPGPTTDGVWGGGRPGDAAGPASSSTTAPAPRSSRPTEKAFTVPITDVTENALKDLDDVMKTTK
notes: also called WT FB-containing protein; FB protein; source: recombinant
In the case of B2, the IC50 [4] is reported as 8.1 nM.

Source: PMC12281766, “Inhibition of FAM19A5 reverses synaptic loss and cognitive decline in mouse models of Alzheimer’s disease” (Alzheimer's Research & Therapy, 2025)
